Measured values from patent US20240270817A1 (PETMEDIX, published 2024).
Where two headings read alike, the source gives them in different places.

B1: Bedinvetmab (antibody, V domains shown)
VH: EVQLVESGGDLVKPGGSLRLSCVASGFTFSSHGMHWVRQSPGKGLQWVAVINSGGSSTYYTDAVKGRFTISRDNAKNTVYLQMNSLRAEDTAMYYCAKESVGGWEQLVGPHFDYWGQGTLVIVSS
VL: QSVLTQPTSVSGSLGQRVTISCSGSTNNIGILGASWYQLFPGKAPKLLVYGNGNRPSGVPDRFSGADSGDSVTLTITGLQAEDEADYYCQSFDTTLGAHVFGGGTHLTVL

How the values were obtained:
[1] = target: NGF (species not stated) (Homo sapiens (Human)) (UniProt P01138); test: cell-based or functional assay
[2] = target: NGF (species not stated) (Homo sapiens (Human)) (UniProt P01138); test: SPR, Biacore 8K; captured on Protein A chip, NGF in solution (the table does not say human or rat)
[3] = target: NGF (species not stated) (Homo sapiens (Human)) (UniProt P01138); test: cell-based or functional assay; remark: listed apart in the source
[4] = target: T1, human Nerve Growth Factor (human, UniProt P01138 122-241); test: cell-based or functional assay
[5] = target: T1, human Nerve Growth Factor; test: SPR, Biacore 8K; captured on Protein A chip, hNGF in solution, multi-cycle kinetics

T1 sequence (P01138 122-241 limits assumed): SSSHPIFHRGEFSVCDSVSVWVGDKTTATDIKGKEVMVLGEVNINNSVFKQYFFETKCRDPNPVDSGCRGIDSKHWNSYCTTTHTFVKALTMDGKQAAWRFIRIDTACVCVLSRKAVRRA

Row | Molecule | Bottom (%), best-fit values, PathHunter TrkA activation assay [1] [%] | IC50 (nM), PathHunter TrkA activation assay [1] [nM] | Top (%), best-fit values, PathHunter TrkA activation assay [1] [%] | Kd [2] [nM] | Bottom (%), best-fit, PathHunter TrkA activation assay [3] [%] | IC50 (nM), PathHunter TrkA activation assay [3] [nM] | Top (%), best-fit, PathHunter TrkA activation assay [3] [%] | maximal TrkA inhibition, PathHunter TrkA activation assay [3] [%] | IC50 (nM), TF-1 cell proliferation inhibition [4] [nM] | ICMAX (%), TF-1 cell proliferation inhibition [4] [%] | Kd [5] [nM]
1 | PetML308 (Human p75NTR ECD full stalk IgG1) (Fc fusion) | 44.5 | 282 | 105 | 8.78 |  |  |  |  |  |  | 
2 | PetML319 (Human p75NTR ECD no stalk IgG1) (Fc fusion) | 9.5 | 8.04 |  | 0.358 |  |  |  |  |  |  | 
3 | B1 | 2.11 | 1.14 | 93.5 | 0.0073 | 5.35 | 4.24 | 123 | 100 | 0.89 | 96.8 | 0.0073
